# According to patent US11285283B2, “Methods for generating and delivering droplets to the pulmonary system using a droplet delivery device” (PNEUMA RESPIRATORY, INC., priority 2016, dated 2022):
# “And” between values parts separate entries of the source, which are not always exact repeats. Equal values may be shown once.
# Tests used:
# [1] = tested on: patients with cystic fibrosis; settings: cited from earlier work
# [2] = Anderson Cascade Impactor testing of droplet delivery device with Albuterol sulfate (Example B); assay type: physicochemical
# Experimental: Droplet size distribution and related functionality was evaluated for exemplary droplet delivery devices of the disclosure, including Anderson Cascade Impactor testing, total drug mass output rates, total drug respirable mass, delivery efficiencies and reproducibility.
# The study was designed to evaluate device performance of a single Pneuma™ inhaler. A series of three (3) individual tests were conducted with a new disposable drug cartridge for each test. The testing platform utilizes an eight-stage nonviable Anderson Cascade Impactor (Thermo Fisher Scientific; Waltham, Mass.) equipped with a calibrated AALBORG model GFM47 mass flow meter (AALBORG Instruments and Controls; Orangeburg, N.Y.) for flow rate measurement.
# At the conclusion of each test, the mouthpiece was rinsed with mobile phase and collected for HPLC analysis to determine the mass fraction of non-respirable aerosolized drug captured in the mouthpiece via inertial filtering. Following each test, impactor stage samples were extracted and recovered in solvent and analyzed for the active pharmaceutical ingredient (API) using a Dionex Ultimate 3000 nano-HPLC with UV detection (Thermo Scientific, Sunnyvale, Calif.).
# The cascade impactor testing procedure involved fitting the mouthpiece into the Impactor USP throat with a mouthpiece connection seal. The vacuum pump supplying sample air flow to the cascade impactor was turned on and the pump control valves adjusted to supply 28.3 L/min total flow through the impactor and inhaler body during aerosol tests.
# The device was connected to the impactor USB throat, turned on, and actuated ten (10) times for each test. At the conclusion of the test period, the device, impactor, and dilution air sources were turned off. The i mouthpiece was rinsed in order to extract drug, and all stages of the cascade impactor were rinsed with a quantity of appropriate solvent (HPLC mobile phase). Extracted samples were placed in labeled and sterile HPLC vials, capped, and analyzed for drug content via HPLC with UV detection. The mouthpiece was extracted of residual drug and analyzed for drug content via HPLC to measure mouthpiece drug deposition in relation to the total collected on the impactor stages.
# All system flow rates and impactor sample flows were monitored throughout each test period. Following each test, the impactor slides were placed in labeled sterile Petri dishes, and impactor stages were extracted of drug using 2 ml of mobile phase applied with a calibrated micropipette. All extracted samples from the mouthpiece and impactor were placed in labeled sterile amber HPLC sample vials, and stored refrigerated at approximately 2° C. until HPLC analysis.
# Impactor collection stages for all tests were rinsed with DI water and ethanol, and air dried prior to each inhaler test trial to avoid contamination. A new inhaler drug cartridge was used for each of the three individual tests.
# All drug content analysis was performed using a Dionex Ultimate 3000 nano-HPLC equipped with a Dionex UVD-3000 multi-wavelength UV/VIS Detector using a micro flow cell (75 μm×10 mm path length, total analytical volume 44.2 nl). […] Total HPLC run time was 6 minutes per sample with approximately 5 minutes flush between each sample. Sample injection was performed with a 1 μl sample loop in full loop injection mode.
# Buffer formulation contains reverseosmosis filtered deionized water with 1.13 gr of sodium 1-hexanesulfonate (Alfa Aesar) in 1200 ml of water, with 2 ml glacial acetic acid (Acros Organics) added. The mobile phase solution was mixed and filtered through a 0.45 μm filter membrane. The final mobile phase is a 60:40 dilution of Buffer: MEOH.
# [3] = Insulin stability after aerosol generation, size exclusion chromatography; assay type: physicochemical
# From the text: Alternately, to determine the stability of active agent after droplet generation, the generated stream of droplets including the active agent may be collected and SEC-HPLIC may be employed to monitor for any changes in large molecule aggregation and protein fragment content. Soluble protein aggregates and protein fragment content may be calculated by comparing respective peak area under the SEC-HPLC curve of dispensed protein solutions with controls (solutions remaining in the device reservoir).
# Drug solutions for testing include Enbrel, (ENBREL® single-use prefilled syringes in 25 mg (0.51 mL of a 50 mg/mL solution of etanercept), and insulin, (Humalog, 200 units/ml, 3 ml kwikpens)
# To calculate and compare effects of droplet generation through an ejector mechanism of the disclosure, the total area under the curve of the UV signal at 280 nm versus elution time for controls is compared with the aerosolized samples, which is set to 100%.
# Aerosol collection and SEC is performed in a similar fashion as for the Enbrel analysis and aerosol collection.
# Fifty microliters of the collected aerosol spray is injected onto the SEC column for analysis, while 50 mcl of the Kwikpen insulin solution is injected onto the SEC column for control samples.
# [4] = Gel electrophoresis of active agent after droplet generation; assay type: physicochemical; settings: after droplet generation with the device
# From the text: To determine the stability of active agent after droplet generation, the generated stream of droplets including the active agent is collected and the molecular weight of the active agent is verified using gel electrophoresis.
# [5] = Enbrel stability after aerosol generation, size exclusion chromatography; assay type: physicochemical; settings: for Peak 1 Peak Area % / Peak 2 Peak Area % / Peak 3 Peak Area % / Peak 4 Peak Area % / Peak 5 Peak Area %: replicate samples
# From the text: Alternately, to determine the stability of active agent after droplet generation, the generated stream of droplets including the active agent may be collected and […] may be employed to monitor for any changes in large molecule aggregation and protein fragment content. Soluble protein aggregates and protein fragment content may be calculated by comparing respective peak area under the SEC-HPLC curve of dispensed protein solutions with controls (solutions remaining in the device reservoir). Drug solutions for testing include Enbrel, (ENBREL® single-use prefilled syringes in 25 mg (0.51 mL of a 50 mg/mL solution of etanercept), and insulin, (Humalog, 200 units/ml, 3 ml […] is performed with a YarraTM 3 μm SEC-2000 LC column 300×7.8 mm, SecurityGuard cartridge kit and SecurityGuard cartridges GFC-2000, 4×3 mm ID. Fifty microliters of Enbrel from the syringe (ENBREL® single-use prefilled syringes in 25 mg/0.51 mL of a 50 mg/mL solution of etanercept) is diluted (4:1) (4 parts, 200 mcl of the mobile phase buffer solution to 1 part, 50 mcl Enbrel from syringe). Fifty microliter of the diluted Enbrel is injected and separation was performed at a flow rate of 1.0 ml/min. The mobile phase buffer system included a PHOS. BUFF. SALINE. […] UV detection is performed at 280 nm. […] An ampule/cartridge is filled with […] of Enbrel® (50 mg/ml) diluted 4:1 (10 mg/ml)(4 parts (200 mcl) of PBS and 0.025% NaN3 and 1 part (50 mcl of Enbrel solution from the syringe). After 20 actuations and aerosolization, about 150 mcl of the aerosolized Enbrel solution is recovered and collected in the polypropylene tube located below the ejector mechanism. The control consists of the diluted Enbrel solution, 50 mcl of which is injected into the SEC column for analysis.
# [6] = Albuterol 0.5%, 28.3 lpm, 10 actuations
# [7] = aerosolized, average of S1 and S2
compound,measurement,setting,value
NC[C@H]1O[C@H](O[C@H]2[C@H](O)[C@@H](O[C@H]3O[C@H](CO)[C@@H](O)[C@H](N)[C@H]3O)[C@H](N)C[C@@H]2N)[C@H](N)C[C@@H]1O [tobramycin],pulmonary function after administration by inhalation,"[1]; inhalation, without severe side effects to kidney functions",significantly improves pulmonary function
same,serum levels after intravenous administration,[1]; intravenous administration,toxic to the kidneys
Albuterol sulfate,droplets of an average diameter of less than about 5 μm,[2]; [6],over 75%
same,droplets with an average diameter of less than about 4 μm,[2]; [6],over 70%
same,Cum. % <,[2]; FILTER,0.00%
same,Cum. % >,[2]; FILTER,100.00%
same,Cum. % <,"[2]; Pre-separator, cut diam. 10 μm",100.00%
same,Cum. % >,"[2]; Pre-separator, cut diam. 10 μm",0.00%
"Insulin: insulin, Humalog, 200 units/ml, 3 ml kwikpens",ejected dose forming a fragment which elutes at ~25 minutes,[3]; aerosolized with test device,2.5%
same,Peak 1 Peak Area %,"[3]; aerosolized with test device, 20 actuations, replicate samples",27.881% and 28.721%
same,Peak 2 Peak Area %,"[3]; aerosolized with test device, replicate samples",69.780% and 67.807%
same,Peak 3 Peak Area %,"[3]; aerosolized with test device, replicate samples, fragment, elution ~25 min",2.184% and 2.797%
same,"Peak 3 Peak Area %, Avg.",[3]; [7],2.4905
same,Peak 1 Peak Area %,"[3]; control, Kwikpen solution 200 U/ml, not aerosolized",29.926%
same,Peak 2 Peak Area %,"[3]; control, not aerosolized",69.630%
same,Peak 3 Peak Area %,"[3]; control, not aerosolized",0%
adalimumab,change in electrophoretic mobility / molecular weight of post-aerosol active agent versus control,[4],negligible change
bevacizumab,change in electrophoretic mobility / molecular weight of post-aerosol active agent versus control,[4],negligible change
etanercept [Enbrel],dose forming molecular fragments with elution times of 13 and 25 minutes,[5]; aerosolized with test device,4.6%
same,Peak 1 Peak Area %,"[5]; aerosolized with test device, 20 actuations",3.476% and 2.796%
same,Peak 2 Peak Area %,[5]; aerosolized with test device,92.112% and 90.789%
same,Peak 3 Peak Area %,[5]; aerosolized with test device,0.361% and 0.424%
same,Peak 4 Peak Area %,"[5]; aerosolized with test device, fragment, elution about 13 min",0.352% and 0.357%
same,Peak 5 Peak Area %,"[5]; aerosolized with test device, fragment, elution about 25 min",3.428% and 5.130% and 5.123%
same,"Peak 4 Peak Area %, Avg.",[5]; [7],0.3545
same,"Peak 5 Peak Area %, Avg.",[5]; [7],4.2755
same,Peak 1 Peak Area %,"[5]; control, Enbrel diluted 4:1 (10 mg/ml), not aerosolized",2.428% and 3.041%
same,Peak 2 Peak Area %,"[5]; control, not aerosolized",96.676% and 95.909%
same,Peak 3 Peak Area %,"[5]; control, not aerosolized",0.373% and 0.351%
same,Peak 4 Peak Area %,"[5]; control, not aerosolized",0%
same,Peak 5 Peak Area %,"[5]; control, not aerosolized",0%
same,change in electrophoretic mobility / molecular weight of post-aerosol active agent versus control,[4],negligible change
